The record followed here is patent US20190169692.

This data set has as its target YB-1 protein, P67809.

Chain of YB-1 protein, P67809 (P67809 whole entry, looked up): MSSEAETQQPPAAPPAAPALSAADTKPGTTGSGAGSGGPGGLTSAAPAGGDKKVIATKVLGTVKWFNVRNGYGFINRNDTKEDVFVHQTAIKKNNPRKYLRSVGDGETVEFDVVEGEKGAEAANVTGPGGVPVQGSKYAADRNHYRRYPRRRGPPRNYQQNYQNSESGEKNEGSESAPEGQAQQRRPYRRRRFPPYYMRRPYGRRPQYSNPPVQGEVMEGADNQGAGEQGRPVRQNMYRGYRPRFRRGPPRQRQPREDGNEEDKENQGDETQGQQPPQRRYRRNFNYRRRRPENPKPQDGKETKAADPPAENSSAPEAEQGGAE

B1: serine threonine kinase 32C (STK32C) (protein)
chain: MRSGAERRGSSAAASPGSPPPGRARPAGSDAPSALPPPAAGQPRARDSGDVRSQPRPLFQWSKWKKRMGSSMSAATARRPVFDDKEDVNFDHFQILRAIGKGSFGKVCIVQKRDTEKMYAMKYMNKQQCIERDEVRNVFRELEILQEIEHVFLVNLWYSFQDEEDMFMVVDLLLGGDLRYHLQQNVQFSEDTVRLYICEMALALDYLRGQHIIHRDVKPDNILLDERGHAHLTDFNIATIIKDGERATALAGTKPYMAPEIFHSFVNGGTGYSFEVDWWSVGVMAYELLRGWRPYDIHSSNAVESLVQLFSTVSVQYVPTWSKEMVALLRKLLTVNPEHRLSSLQDVQAAPALAGVLWDHLSEKRVEPGFVPNKGRLHCDPTFELEEMILESRPLHKKKKRLAKNKSRDNSRDSSQSENDYLQDCLDAIQQDFVIFNREKLKRSQDLPREPLPAPESRDAAEPVEDEAERSALPMCGPICPSAGSG
Consider B1, for which the “in vitro kinase assay with P32-labeled ATP (YB-1 with serine 165 / serine 167 mutated to alanine as substrate, STK32C as enzyme source)” value is “it was confirmed that the serine 167 of the YB-1 substrate protein was phosphorylated by SKT32C”.
